System: Escherichia coli TOP10
Assay: shrunken log2 fold change of peptide-encoding DNA abundance (4.5 h post-induction vs induction); higher = less antimicrobial activity (less host growth inhibition)
Details: time post-induction: 4.5 h; library: site-saturation at positions 5, 18, 19, 20
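Note: peptides expressed intracellularly from a pBAD plasmid library in pooled LB shake-flask culture, induced with 0.3% L-arabinose, DNA abundance read by NGS, three biological replicates, DESeq2 with apeglm shrinkage.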

Row | Sequence | shrunken log2 fold change
1 | RRIRVRPPRLPRPRPRPLLIPRP | -0.304
2 | RRIRDRPPRLPRPRPRPDEHPRP | 0.0279
3 | RRIRPRPPRLPRPRPRPAVNPRP | -0.103
4 | RRIRWRPPRLPRPRPRPMVQPRP | 0.121
5 | RRIRRRPPRLPRPRPRPYLDPRP | -0.546
6 | RRIRDRPPRLPRPRPRPNGCPRP | -0.00152
7 | RRIRSRPPRLPRPRPRPDREPRP | 0.154
8 | RRIRSRPPRLPRPRPRPNYFPRP | -0.828
9 | RRIRGRPPRLPRPRPRPLHCPRP | 0.188
10 | RRIRIRPPRLPRPRPRPVLFPRP | -0.357
11 | RRIRGRPPRLPRPRPRPAKMPRP | 0.538
12 | RRIRPRPPRLPRPRPRPVTQPRP | 0.2
13 | RRIRGRPPRLPRPRPRPVGAPRP | 1.13
14 | RRIRVRPPRLPRPRPRPFQEPRP | 0.00442
15 | RRIRMRPPRLPRPRPRPEHIPRP | -0.0225
16 | RRIRFRPPRLPRPRPRPCFMPRP | -0.213
17 | RRIRDRPPRLPRPRPRPQWRPRP | 0.21
18 | RRIRLRPPRLPRPRPRPMGWPRP | 0.203
19 | RRIRQRPPRLPRPRPRPAFRPRP | 0.204
20 | RRIRGRPPRLPRPRPRPSNYPRP | -0.0111
21 | RRIRYRPPRLPRPRPRPPVSPRP | -0.378
22 | RRIRGRPPRLPRPRPRPNEAPRP | 1.22
23 | RRIRYRPPRLPRPRPRPTKWPRP | -0.489
24 | RRIRYRPPRLPRPRPRPFGIPRP | -0.149
25 | RRIRVRPPRLPRPRPRPLICPRP | -0.0443

Row | Sequence | shrunken log2 fold change
26 | RRIRIRPPRLPRPRPRPEQNPRP | -0.204
27 | RRIRWRPPRLPRPRPRPVNRPRP | -0.00204
28 | RRIRYRPPRLPRPRPRPASNPRP | -0.0548
29 | RRIRARPPRLPRPRPRPIPHPRP | 0.0126
30 | RRIRKRPPRLPRPRPRPHSTPRP | -0.0637
31 | RRIRFRPPRLPRPRPRPLKWPRP | -0.13
32 | RRIRQRPPRLPRPRPRPNHWPRP | -0.176
33 | RRIRDRPPRLPRPRPRPKSSPRP | 0.0319
34 | RRIRHRPPRLPRPRPRPFQAPRP | -0.312
35 | RRIRERPPRLPRPRPRPVSRPRP | 0.23
36 | RRIRWRPPRLPRPRPRPRSVPRP | 0.247
37 | RRIRERPPRLPRPRPRPECDPRP | 0.12
38 | RRIRMRPPRLPRPRPRPKSMPRP | 0.0732
39 | RRIRVRPPRLPRPRPRPEIMPRP | -0.194
40 | RRIRSRPPRLPRPRPRPPTHPRP | 0.197
41 | RRIRLRPPRLPRPRPRPDDKPRP | -0.525
42 | RRIRIRPPRLPRPRPRPMSPPRP | 0.111
43 | RRIRIRPPRLPRPRPRPKIGPRP | -0.0343
44 | RRIRFRPPRLPRPRPRPYLMPRP | -0.687
45 | RRIRLRPPRLPRPRPRPYFGPRP | -0.218
46 | RRIRNRPPRLPRPRPRPHCRPRP | 0.00914
47 | RRIRHRPPRLPRPRPRPHYWPRP | -0.588
48 | RRIRTRPPRLPRPRPRPGFFPRP | 0.147
49 | RRIRVRPPRLPRPRPRPLDFPRP | -0.147
50 | RRIRKRPPRLPRPRPRPNQQPRP | 0.101

From the supplement of paper PMC9112550, “Optimization of the antimicrobial peptide Bac7 by deep mutational scanning” (BMC Biology, 2022)
